Publication PMC9406121

What was measured:
[1] = biological target: extracellular domain of IL-13-RA2 human recombinant receptor protein (human) (UniProt Q14627); assay: ELISA
[2] = biological target: DT390-IL-13 single-chain fusion cytotoxin (monomer) (Corynebacterium diphtheriae | not stated); assay: SEC-MALS; SEC-MALS-DLS, Superose 6 Increase 10/300 GL, 4 °C, PBS pH 7.4

Chain of UniProt Q14627 (Q14627 27-343): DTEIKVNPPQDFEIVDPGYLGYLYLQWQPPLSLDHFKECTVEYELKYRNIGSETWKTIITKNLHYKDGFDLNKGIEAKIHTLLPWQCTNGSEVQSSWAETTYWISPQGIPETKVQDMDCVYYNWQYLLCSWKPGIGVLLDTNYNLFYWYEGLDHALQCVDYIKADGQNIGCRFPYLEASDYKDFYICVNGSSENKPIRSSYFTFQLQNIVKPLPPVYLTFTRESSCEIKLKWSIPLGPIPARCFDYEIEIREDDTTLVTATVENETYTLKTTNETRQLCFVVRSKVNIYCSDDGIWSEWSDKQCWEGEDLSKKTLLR

Row | Substance | EC50 [1] [nM] | Kd [1] [nM] | stoichiometry N [2]
1 | DT390-IL-13 single-chain fusion cytotoxin, dimer (complex) | 6.4 |  | 
2 | DT390-IL-13 single-chain fusion cytotoxin, oligomers (complex) | 6.8 |  | 
3 | DT390-IL-13 single-chain fusion cytotoxin (monomer) | 1.9 | 0.0674 | 2
